Measurements published in publication PMC11182772, “A non-canonical role of the inner kinetochore in regulating sister-chromatid cohesion at centromeres” (The EMBO Journal, 2024).

Key:
[1] = target: T1, GST-Scc1 (281–420)-SA2 (80–1060) sub-complex (UniProt O60216 281-420; Q8N3U4 80-1060); assay: pull-down; MBP fusion protein as bait, eluted GST-Scc1 (281–420)-SA2 (80–1060) as prey; binding 2 h, three washes of 5 min in P150 buffer; immunoblot for GST; settings: both partners purified
T1 sequence (looked up) 1: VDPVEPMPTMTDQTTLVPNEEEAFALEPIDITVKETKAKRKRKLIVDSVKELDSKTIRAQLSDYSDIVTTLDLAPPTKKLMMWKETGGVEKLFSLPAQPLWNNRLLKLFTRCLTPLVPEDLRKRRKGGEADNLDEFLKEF
T1 sequence (looked up) 2: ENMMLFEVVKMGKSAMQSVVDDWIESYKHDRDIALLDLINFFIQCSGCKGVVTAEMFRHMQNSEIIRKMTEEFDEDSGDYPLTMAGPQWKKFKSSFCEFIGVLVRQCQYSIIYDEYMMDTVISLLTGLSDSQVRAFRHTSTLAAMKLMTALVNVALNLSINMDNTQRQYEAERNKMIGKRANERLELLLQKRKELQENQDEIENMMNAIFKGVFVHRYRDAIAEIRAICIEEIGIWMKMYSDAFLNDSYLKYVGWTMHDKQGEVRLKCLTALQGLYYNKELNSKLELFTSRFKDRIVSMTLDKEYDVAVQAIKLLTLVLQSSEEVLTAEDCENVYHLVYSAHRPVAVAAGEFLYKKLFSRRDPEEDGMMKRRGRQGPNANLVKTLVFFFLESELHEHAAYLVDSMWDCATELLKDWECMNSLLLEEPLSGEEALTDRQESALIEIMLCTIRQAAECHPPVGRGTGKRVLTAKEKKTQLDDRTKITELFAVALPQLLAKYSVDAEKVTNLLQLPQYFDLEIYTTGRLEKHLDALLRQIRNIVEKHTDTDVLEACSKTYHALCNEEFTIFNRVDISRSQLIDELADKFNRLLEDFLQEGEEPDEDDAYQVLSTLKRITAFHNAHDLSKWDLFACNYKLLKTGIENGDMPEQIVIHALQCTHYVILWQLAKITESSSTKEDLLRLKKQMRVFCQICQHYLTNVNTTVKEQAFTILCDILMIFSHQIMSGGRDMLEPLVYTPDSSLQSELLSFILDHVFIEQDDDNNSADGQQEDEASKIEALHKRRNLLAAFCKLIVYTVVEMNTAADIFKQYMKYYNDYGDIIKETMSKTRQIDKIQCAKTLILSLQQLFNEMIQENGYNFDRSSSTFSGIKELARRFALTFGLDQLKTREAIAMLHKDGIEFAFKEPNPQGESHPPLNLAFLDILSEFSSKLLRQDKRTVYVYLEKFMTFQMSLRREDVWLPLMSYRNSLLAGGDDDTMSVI

[2] = target: T1, GST-Scc1 (281–420)-SA2 (80–1060) …; assay: pull-down; GST-Scc1 (281–420)-SA2 (80–1060) as bait, purified recombinant MBP fusion proteins as prey; immunoblot for MBP; settings: both partners purified

Row | Binder | binding result [1] | binding result [2]
1 | MBP-CENP-U (1–200) (domain or fragment, human, UniProt Q71F23 1-200, looked up, human CENP-U, residues 1–200; vector pMal-C2E; also called MBP-fused CENP-U (1–200); source: E. coli BL21 (DE3), purified (amylose resin)) MAPRGRRRPRPHRSEGARRSKNTLERTHSMKDKAGQKCKPIDVFDFPDNSDVSSIGRLGENEKDEETYETFDPPLHSTAIYADEEEFSKHCGLSLSSTPPGKEAKRSSDTSGNEASEIESVKISAKKPGRKLRPISDDSESIEESDTRRKVKSAEKISTQRHEVIRTTASSELSEKPAESVTSKKTGPLSAQPSVEKENL | binds | –
2 | MBP-Wapl (1–630) (domain or fragment, human, UniProt Q7Z5K2 1-630, looked up, human Wapl, residues 1–630, with all three FGF motifs; vector pMal-C2E; also called MBP-fused Wapl (1–630); source: E. coli BL21 (DE3), purified (amylose resin; on resin or eluted)) MTSRFGKTYSRKGGNGSSKFDEVFSNKRTTLSTKWGETTFMAKLGQKRPNFKPDIQEIPKKPKVEEESTGDPFGFDSDDESLPVSSKNLAQVKCSSYSESSEAAQLEEVTSVLEANSKISHVVVEDTVVSDKCFPLEDTLLGKEKSTNRIVEDDASISSCNKLITSDKVENFHEEHEKNSHHIHKNADDSTKKPNAETTVASEIKETNDTWNSQFGKRPESPSEISPIKGSVRTGLFEWDNDFEDIRSEDCILSLDSDPLLEMKDDDFKNRLENLNEAIEEDIVQSVLRPTNCRTYCRANKTKSSQGASNFDKLMDGTSQALAKANSESSKDGLNQAKKGGVSCGTSFRGTVGRTRDYTVLHPSCLSVCNVTIQDTMERSMDEFTASTPADLGEAGRLRKKADIATSKTTTRFRPSNTKSKKDVKLEFFGFEDHETGGDEGGSGSSNYKIKYFGFDDLSESEDDEDDDCQVERKTSKKRTKTAPSPSLQPPPESNDNSQDSQSGTNNAENLDFTEDLPGVPESVKKPINKQGDKSKENTRKIFSGPKRSPTKAVYNARHWNHPDSEELPGPPVVKPQSVTVRLSSKEPNQKDDGVFKAPAPPSKVIKTVTIPTQPYQDIVTALKCRREDK | – | binds
3 | MBP-Sgo1 (230–400) (domain or fragment, human, UniProt Q5FBB7 230-400, looked up, human Sgo1, residues 230–400; vector pMal-C2E; also called recombinant MBP-Sgo1 (230–400); source: E. coli BL21 (DE3), purified (amylose resin)) DPLVNMHIPENVQHNACQWSKDQVNLSPKLIQPGTFTKTKEDILESKSEQTKSKQRDTQERKREEKRKANRRKSKRMSKYKENKSENKKTVPQKKMHKSVSSNDAYNFNLEEGVHLTPFRQKVSNDSNREENNESEVSLCESSGSGDDSDDLYLPTCKYIQNPTSNSDRPV | – | binds
